From patent US20260183411A1, “TARGETING SORTILIN” (priority 2024, published 2026)
Bridges are numbered along the chain shown (N, C = ends). Where no end group is shown, it is not given here. Side-chain parts run from the residue outwards. [ ]: non-standard residue; d: D form. tBuAla = CC(C)(C)C[C@H](N)C(=O)O; Tle = CC(C)(C)[C@H](N)C(=O)O; linker = not defined here; Nle = CCCC[C@H](N)C(=O)O; siRNA = not defined here

T1: cyno SORT1 (76-753)-His (cyno, UniProt A0A2K5VHG2 74-751)
T1 construct: range 76-753; Amine-coupled to CM5 chip for SPR
T1 sequence: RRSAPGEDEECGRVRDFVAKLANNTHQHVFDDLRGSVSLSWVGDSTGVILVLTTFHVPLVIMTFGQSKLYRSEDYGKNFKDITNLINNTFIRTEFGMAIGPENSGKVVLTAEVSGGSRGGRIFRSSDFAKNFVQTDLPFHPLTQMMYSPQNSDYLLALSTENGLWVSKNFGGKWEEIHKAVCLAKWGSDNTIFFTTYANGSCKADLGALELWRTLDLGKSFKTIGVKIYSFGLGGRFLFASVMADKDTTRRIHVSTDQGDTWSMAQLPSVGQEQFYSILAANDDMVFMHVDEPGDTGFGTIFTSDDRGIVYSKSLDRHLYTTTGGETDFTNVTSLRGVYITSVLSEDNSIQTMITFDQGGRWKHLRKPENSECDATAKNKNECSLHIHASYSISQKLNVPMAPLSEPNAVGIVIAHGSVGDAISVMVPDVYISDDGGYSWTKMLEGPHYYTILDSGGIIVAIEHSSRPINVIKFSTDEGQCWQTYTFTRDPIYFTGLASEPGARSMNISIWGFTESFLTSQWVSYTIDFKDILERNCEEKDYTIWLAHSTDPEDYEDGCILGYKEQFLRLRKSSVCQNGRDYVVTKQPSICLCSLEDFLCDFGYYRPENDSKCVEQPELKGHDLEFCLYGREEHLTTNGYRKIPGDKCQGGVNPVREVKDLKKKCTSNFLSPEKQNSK

B1: SORT1 peptide 3 conjugate (peptide)
peptide: RWCENK([linker-siRNA])R[Nle]FTCRQ[Tle][tBuAla]
modifications: disulfide 3-11 (inferred); not fully specified; printed as RWCENKR(Nle)FTCRQ(B13)(F02); reading uncertain
notes: also called SORT1 peptide 3 siRNA conjugate

What was measured:
[1] = Murine plasma stability assay; format: in vitro ADME; conditions: mouse, 2 μM, 37° C., read-out: Murine plasma stability assay, T1/2
Description: Frozen plasma was thawed at 37° C. and centrifuged at 4000 rpm to remove any clots and transferred to 96-well reaction plates by WuXi AppTec. Test compounds were added to the reaction plate at a final concentration of 2 μM and either stopped immediately or incubated at 37° C. for 5 minutes, 10 minutes, 30 minutes, 60 minutes, or 120 minutes. At the end of incubation, stop solution consisting of 200 ng/mL tolbutamide and 200 ng/mL labetalol in ACN was added to precipitate protein and mixed thoroughly. Samples were then transferred to a bioanalysis plate and shaken for 10 minutes prior to HPLC-MS/MS analysis of percent remaining compound.
Table 14 tabulates the plasma stability for each of the three PDCs tested.

[2] = CMC formulation buffer screen; format: physicochemical; conditions: 0.5 mg/mL
Description: Exemplary conjugate agents (e.g., sortilin binding agents), referred to in the present Example as “peptide drug conjugates” or “PDCs” were assessed in a formulation screen to determine an appropriate vehicle for in vivo studies and to assess precipitation risk. PDC solutions were made up to 0.5 mg/mL in the following buffers: 25 mM Histidine 10% sucrose pH 7, 50 mM acetate/acetic acid, 10% sucrose pH 5, 1×PBS pH 7.4, Saline, 50 mM HEPES 10% sucrose pH 7. Solubility was assessed using a shake flask method and the test compound concentration of the filtrate was confirmed using HPLC-UV.
The following buffers were screened: 25 mM Histidine 10% sucrose pH 7, 50 mM acetate/acetic acid, 10% sucrose pH 5, 1×PBS pH 7.4, Saline, 50 mM HEPES 10% sucrose pH 7. The PDCs were soluble in all buffers tested (Table 1), and we proceed to use 25 mM Histidine, 10% sucrose pH 7 as our buffer of choice for our in vivo studies.

cyno SORT1 (76-753)-His = target: T1, cyno SORT1 (76-753)-His; assay: SPR (Biacore 8K), SORT1 on CM5 chip, siRNA-peptide conjugate as analyte, 1:1 model
Description: SPR analysis was performed on Series S CM5 chips (Cytiva) using a Biacore 8K instrument (Cytiva). Sensorgrams were double-referenced by subtracting the response on both a reference flow cell and a blank sample. Human SORT1 (78-755)-His (Acrobiosystems), human SORT1 (78-755)-His(GenScript), mouse SORT1 (76-753)-His (R&D Systems), rat SORT1 (76-752)-His (GenScript), and cyno SORT1 (76-753)-His (GenScript) were diluted to 20-60 μg/mL in 10 mM sodium acetate pH 4.5 buffer and immobilized onto Series S CM5 chips using amine coupling at a flow rate of 10 μL/min for 45-100 s.
Ten start-up cycles and a blank cycle preceded each analysis run. The runs were performed by sequential injections of analyte (0-20 nM, 3-fold serial dilutions) with a 90 s association and 900 s dissociation at a flow rate of 30 μL/min, followed by two regeneration cycles with 2 M MgCl2 for 90 s at a flow rate of 10 μL/min. […] Five start-up cycles and a blank cycle preceded each analysis run. The runs were performed by sequential injections of analyte (0-25 nM) with a 150 seconds (s) association and 300 s dissociation at a flow rate of 30 μL/min, followed by a regeneration with 2 M MgCl₂ for 200 s at a flow rate of 10 μL/min. The kinetic rate constants (kₐ and kd) and the equilibrium binding constant (Kd) were calculated using a 1:1 kinetic binding model on the Biacore Insight Evaluation Software (Cytiva).
SPR analysis was performed on Series S CM5 chips (Cytiva) using a Biacore 8K instrument (Cytiva). Sensorgrams were double-referenced by subtracting the response on both a reference flow cell and a blank sample. The SPR analysis was conducted using four different SORT1 species: Human SORT1, Mouse SORT1, Rat SORT1, and Cyno SORT1. The samples were prepared according to the general procedure described above herein. The kinetic rate constants (ka and […]) and the equilibrium binding constant (Kd) were calculated using a 1:1 kinetic binding model on the Biacore Insight Evaluation Software (Cytiva).

Row | Molecule | half-life [1] [min] | result (buffer screening) ([2]; 25 mM Histidine 10% sucrose pH 7) | result (buffer screening) ([2]; 50 mM HEPES 10% sucrose pH 7) | result (buffer screening) ([2]; 50 mM acetate/acetic acid, 10% sucrose pH 5) | result (buffer screening) ([2]; 1x PBS pH 7.4) | result (buffer screening) ([2]; Saline) | Kd (cyno SORT1 (76-753)-His) [nM]
1 | CC[C@H](C)[C@@H]([C@@H](CC(=O)N1CCC[C@H]1[C@H](OC)[C@@H](C)C(=O)N[C@H](C)[C@@H](O)c1ccccc1)OC)N(C)C(=O)[C@@H](NC(=O)[C@H](C(C)C)N(C)C(=O)OCc1ccc(NC(=O)[C@H](CCCNC(N)=O)NC(=O)[C@@H](NC(=O)CCCC(=O)NCCC(=O)N(C)CC(=O)N(C)CC(=O)N(C)CC(=O)N(C)CC(=O)N[C@@H](C)C(=O)N2CCC[C@H]2C(=O)N[C@@H](CCCNC(=N)N)C(=O)N[C@@H](Cc2c[nH]c3ccccc23)C(=O)N[C@@H](CC(=O)O)C(=O)N[C@@H](C)C(=O)N2CCC[C@H]2C(=O)N[C@@H](CC(C)C)C(=O)N[C@@H](CCCNC(=N)N)C(=O)N[C@@H](CC(=O)O)C(=O)N2CCC[C@H]2C(=O)N[C@@H](C)C(=O)N[C@@H](CC(C)C)C(=O)N[C@@H](CCCNC(=N)N)C(=O)N[C@@H](CCC(N)=O)C(=O)N[C@@H](CC(C)C)C(=O)N[C@@H](CC(C)C)C(=O)O)C(C)C)cc1)C(C)C [PRGN_WT_PDC] | 17.1 | clear solution | clear solution | clear solution | clear solution | clear solution | –
2 | B1 | – | – | – | – | – | – | 191
